Measured values: publication PMC7000732, “Bridging non-overlapping reads illuminates high-order epistasis between distal protein sites in a GPCR” (Nature Communications, 2020)
Changes are numbered by the printed parent chain. Names may count otherwise. “And” between values parts separate entries of the source, which are not always exact repeats. Equal values may be shown once. Read-outs that look alike come from different tables or passages of the source.

B1: C28A/C82A/C128A/C185A/C245S/C254A/C394S: inactive A2aR variant that does not bind ligand (protein, UniProt P29274 1-412, looked up, variant C28A C82A C128A C185A C245S C254A C394S)
Adenosine receptor A2a: MPIMGSSVYITVELAIAVLAILGNVLVAWAVWLNSNLQNVTNYFVVSLAAADIAVGVLAIPFAITISTGFCAACHGCLFIAAFVLVLTQSSIFSLLAIAIDRYIAIRIPLRYNGLVTGTRAKGIIAIAWVLSFAIGLTPMLGWNNCGQPKEGKNHSQGCGEGQVACLFEDVVPMNYMVYFNFFAAVLVPLLLMLGVYLRIFLAARRQLKQMESQPLPGERARSTLQKEVHAAKSLAIIVGLFALSWLPLHIINAFTFFCPDCSHAPLWLMYLAIVLSHTNSVVNPFIYAYRIREFRQTFRKIIRSHVLRQQEPFKAAGTSARVLAAHGSDGEQVSLRLNGHPPGVWANGSAPHPERRPNGYALGLVSGGSAQESQGNTGLPDVELLSHELKGVSPEPPGLDDPLAQDGAGVS
B2: TAWLH: single-residue mutant Q89A of A2aR, positive control reported to exhibit improved binding affinity to NECA (protein, UniProt P29274 1-412, looked up, variant Q89A)
Adenosine receptor A2a: B1 Adenosine receptor A2a with A28C, A82C, Q89A, A128C, A185C, S245C, A254C, S394C
modifications: decahistidine tag
B3: TSWLH: single-residue mutant Q89S of A2aR, the most abundant variant in PS4 (protein, UniProt P29274 1-412, looked up, variant Q89S)
Adenosine receptor A2a: B1 Adenosine receptor A2a with A28C, A82C, Q89S, A128C, A185C, S245C, A254C, S394C
B4: TGRIA: Variant GRIA (T88/Q89G/W246R/L249I/H250A) of human adenosine A2a receptor (protein, UniProt P29274 1-412, looked up, variant Q89G W246R L249I H250A)
Adenosine receptor A2a: MPIMGSSVYITVELAIAVLAILGNVLVCWAVWLNSNLQNVTNYFVVSLAAADIAVGVLAIPFAITISTGFCAACHGCLFIACFVLVLTGSSIFSLLAIAIDRYIAIRIPLRYNGLVTGTRAKGIIAICWVLSFAIGLTPMLGWNNCGQPKEGKNHSQGCGEGQVACLFEDVVPMNYMVYFNFFACVLVPLLLMLGVYLRIFLAARRQLKQMESQPLPGERARSTLQKEVHAAKSLAIIVGLFALCRLPIAIINCFTFFCPDCSHAPLWLMYLAIVLSHTNSVVNPFIYAYRIREFRQTFRKIIRSHVLRQQEPFKAAGTSARVLAAHGSDGEQVSLRLNGHPPGVWANGSAPHPERRPNGYALGLVSGGSAQESQGNTGLPDVELLSHELKGVCPEPPGLDDPLAQDGAGVS
B5: SLNIG: A2aR variant; letters are residues at T88, Q89, W246, L249, H250 (protein, UniProt P29274 1-412, looked up, variant T88S Q89L W246N L249I H250G)
Adenosine receptor A2a: B4 Adenosine receptor A2a with T88S, G89L, R246N, A250G

Experiments:
[1] = test system: A2aR W246Y; conditions: cited from earlier work
[2] = target: A2aR suspended in bovine striatal membranes; parameters: method as in earlier work; conditions: literature value; cited from earlier work
[3] = Whole-cell saturation radioligand binding; parameters: species or system Saccharomyces cerevisiae; conditions: for Kd: 3H-NECA, whole yeast cells, pH 5.8, mean ± SD of three biological replicates, read-out: equilibrium dissociation constant (Kd); for CPM: raw replicate counts, empty vector not subtracted; for fold greater 3H-NECA binding affinity than wild-type receptor: ratio of Kd to wild-type
[4] = FACS-based screen of A2aR library with deep sequencing (BRIDGE): variant enrichment; type: cell-based, Saccharomyces cerevisiae
[5] = Fluorescent ligand binding measured by flow cytometry; parameters: species or system Saccharomyces cerevisiae; conditions: for fluorescent ligand binding signal / % pop above background / Mean Singlet Fluorescence Intensity (530 nm): replicates; for % pop above background / Mean Singlet Fluorescence Intensity (530 nm): incubated with FITC-APEC; for fluorescent ligand binding, result in words: FITC-APEC, yeast cells
[6] = naive to PS4 library (PS4/naive), high-stringency gating, 10 µM FITC-APEC
[7] = naive to PS4 library, WT rate 0.30

Molecule | Kd [3] [nM] | CPM ([3]; [3H-NECA] 1.6 nM) | CPM ([3]; [3H-NECA] 3.1 nM) | CPM ([3]; [3H-NECA] 6.3 nM) | CPM ([3]; [3H-NECA] 12.5 nM) | CPM ([3]; [3H-NECA] 25 nM) | CPM ([3]; [3H-NECA] 50 nM) | CPM ([3]; [3H-NECA] 100 nM) | CPM ([3]; [3H-NECA] 200 nM) | CPM ([3]; [3H-NECA] 400 nM) | Enrichment rate [4, 6] | fold greater 3H-NECA binding affinity than wild-type receptor [3] | also measured
CCNC(=O)[C@H]1O[C@@H](n2cnc3c(N)nc(NCCc4ccc(CCC(=O)O)cc4)nc32)[C@H](O)[C@@H]1O [CGS21680] |  |  |  |  |  |  |  |  |  |  |  |  | potency of the agonist [1]: comparable to that of the wild-type receptor
CCNC(=O)[C@H]1O[C@@H](n2cnc3c(N)nc(NCCc4ccc(CCC(=O)NCCNC(=S)Nc5ccc6c(c5)C(=O)OC65c6ccc(O)cc6Oc6cc(O)ccc65)cc4)nc32)[C@H](O)[C@@H]1O [FITC-APEC] |  |  |  |  |  |  |  |  |  |  |  |  | Kd [2]: 57 nM
WT: wild-type human adenosine A2a receptor, decahistidine-tagged, expressed in yeast from centromeric pYC vector [reference compound] | 39.2 ± 4.8 | 64 CPM and 47 CPM and 35 CPM | 108 CPM and 89 CPM and 54 CPM | 192 CPM and 223 CPM and 155 CPM | 331 CPM and 408 CPM and 255 CPM | 470 CPM and 533 CPM and 388 CPM | 546 CPM and 694 CPM and 708 CPM | 805 CPM and 900 CPM and 958 CPM | 1026 CPM and 1370 CPM and 1371 CPM | 1047 CPM and 2304 CPM and 1995 CPM | 0.3 |  | Enrichment rate ([4]; naive to PS4 population): 0.30 fold; fluorescent ligand binding signal ([5]; [FITC-APEC] 10 nM, Supplementary Figure 1 source data, listed as pYC A2a10H): 101 and 100 and 99; fluorescent ligand binding signal ([5]; [FITC-APEC] 10 nM, Supplementary Figure 4 source data, listed as pYC A2a10H): 104 and 103 and 102; fluorescent ligand binding signal ([5]; [FITC-APEC] 100 nM, Supplementary Figure 1 source data, listed as pYC A2a10H): 111 and 108 and 134; fluorescent ligand binding signal ([5]; [FITC-APEC] 100 nM, Supplementary Figure 4 source data, listed as pYC A2a10H): 114 and 110 and 133; fluorescent ligand binding signal ([5]; [FITC-APEC] 1000 nM, Supplementary Figure 1 source data, listed as pYC A2a10H): 208 and 180 and 189; fluorescent ligand binding signal ([5]; [FITC-APEC] 1000 nM, Supplementary Figure 4 source data, listed as pYC A2a10H): 206 and 184 and 191; fluorescent ligand binding signal ([5]; [FITC-APEC] 10000 nM, Supplementary Figure 1 source data, listed as pYC A2a10H): 370 and 353 and 396; fluorescent ligand binding signal ([5]; [FITC-APEC] 10000 nM, Supplementary Figure 4 source data, listed as pYC A2a10H): 377 and 330 and 373; fluorescent ligand binding signal ([5]; [FITC-APEC] 50000 nM, Supplementary Figure 1 source data, listed as pYC A2a10H): 442 and 457 and 477; fluorescent ligand binding signal ([5]; [FITC-APEC] 50000 nM, Supplementary Figure 4 source data, listed as pYC A2a10H): 354 and 386 and 364
pITy A2a10H: decahistidine-tagged wild-type A2aR expressed in yeast from multi-site-integrating pITy vector |  |  |  |  |  |  |  |  |  |  |  |  | % pop above background ([5]; +raffinose): 97.3% and 99.1% and 99.7%; Mean Singlet Fluorescence Intensity (530 nm) ([5]; +raffinose): 1177 a.u. and 1389 a.u. and 1621 a.u.; % pop above background ([5]; -raffinose): 88.4% and 92.7% and 86.6%; Mean Singlet Fluorescence Intensity (530 nm) ([5]; -raffinose): 853 a.u. and 1341 a.u. and 1013 a.u.; fluorescent ligand binding signal ([5]; [FITC-APEC] 10 nM, Supplementary Figure 1 source data): 102 and 103 and 101; fluorescent ligand binding signal ([5]; [FITC-APEC] 100 nM, Supplementary Figure 1 source data): 124 and 112 and 118; fluorescent ligand binding signal ([5]; [FITC-APEC] 1000 nM, Supplementary Figure 1 source data): 357 and 323 and 352; fluorescent ligand binding signal ([5]; [FITC-APEC] 10000 nM, Supplementary Figure 1 source data): 1097 and 999 and 1047; fluorescent ligand binding signal ([5]; [FITC-APEC] 50000 nM, Supplementary Figure 1 source data): 1681 and 1267 and 1322
B1 |  |  |  |  |  |  |  |  |  |  |  |  | fluorescent ligand binding, result in words [5]: does not bind ligand
B2 | 9.9 ± 0.4 | 224 CPM and 211 CPM and 240 CPM | 450 CPM and 470 CPM and 429 CPM | 719 CPM and 702 CPM and 640 CPM | 1084 CPM and 978 CPM and 892 CPM | 1238 CPM and 1266 CPM and 1270 CPM | 1460 CPM and 1383 CPM and 1357 CPM | 1834 CPM and 1782 CPM and 1547 CPM | 2245 CPM and 2197 CPM and 2158 CPM | 2884 CPM and 2262 CPM and 2852 CPM | 149 | fourfold | Fold increase in enrichment rate over WT [4, 7]: 497 fold; Enrichment rate ([4]; naive to PS4 population): 149 fold; fluorescent ligand binding, result in words [5]: improved binding affinity; fluorescent ligand binding signal ([5]; [FITC-APEC] 10 nM, Supplementary Figure 4 source data, listed as pYC A2a10H (Q89A)): 102 and 104 and 101; fluorescent ligand binding signal ([5]; [FITC-APEC] 100 nM, Supplementary Figure 4 source data, listed as pYC A2a10H (Q89A)): 132 and 133 and 147; fluorescent ligand binding signal ([5]; [FITC-APEC] 1000 nM, Supplementary Figure 4 source data, listed as pYC A2a10H (Q89A)): 298 and 308 and 303; fluorescent ligand binding signal ([5]; [FITC-APEC] 10000 nM, Supplementary Figure 4 source data, listed as pYC A2a10H (Q89A)): 368 and 357 and 377; fluorescent ligand binding signal ([5]; [FITC-APEC] 50000 nM, Supplementary Figure 4 source data, listed as pYC A2a10H (Q89A)): 430 and 460 and 408
B3 | 11.8 ± 1 | 269 CPM and 283 CPM and 176 CPM | 574 CPM and 478 CPM and 918 CPM | 877 CPM and 818 CPM and 594 CPM | 1293 CPM and 1161 CPM and 783 CPM | 1556 CPM and 1523 CPM and 1194 CPM | 2099 CPM and 1735 CPM and 1402 CPM | 2533 CPM and 2165 CPM and 1719 CPM | 2889 CPM and 2229 CPM and 2151 CPM | 3382 CPM and 2947 CPM and 2944 CPM |  | fourfold | Fold increase in enrichment rate over WT [4]: 1121 fold
B4 | 10.9 ± 0.8 | 148 CPM and 222 CPM and 182 CPM | 317 CPM and 337 CPM and 348 CPM | 477 CPM and 597 CPM and 529 CPM | 612 CPM and 847 CPM and 800 CPM | 815 CPM and 1157 CPM and 1066 CPM | 1152 CPM and 1391 CPM and 1352 CPM | 1488 CPM and 1655 CPM and 1630 CPM | 1857 CPM and 2089 CPM and 2112 CPM | 2326 CPM and 2813 CPM and 3169 CPM | 517 | fourfold | Fold increase in enrichment rate over WT [4, 7]: 1722 fold
B5 | 10.7 ± 0.6 | 138 CPM and 195 CPM and 220 CPM | 282 CPM and 376 CPM and 382 CPM | 494 CPM and 563 CPM and 618 CPM | 783 CPM and 767 CPM and 883 CPM | 861 CPM and 1199 CPM and 1152 CPM | 1216 CPM and 1410 CPM and 1521 CPM | 1341 CPM and 1416 CPM and 1794 CPM | 1692 CPM and 1849 CPM and 2050 CPM | 2037 CPM and 2595 CPM and 2482 CPM |  |  | Enrichment rate [4]: 791; Fold increase in enrichment rate over WT [4]: 2635 fold
